In US20250282870A1 (BIOENTRE, published 2025):
Values belong to the binder of their own block, whether it stands above or below them.

Assays:
[1] = target: T1, human CTLA4 expressed on Jurkat T cells (CTLA4 effector cells) (human, UniProt P16410 36-223); test: cell-based or functional assay
T1 sequence (looked up): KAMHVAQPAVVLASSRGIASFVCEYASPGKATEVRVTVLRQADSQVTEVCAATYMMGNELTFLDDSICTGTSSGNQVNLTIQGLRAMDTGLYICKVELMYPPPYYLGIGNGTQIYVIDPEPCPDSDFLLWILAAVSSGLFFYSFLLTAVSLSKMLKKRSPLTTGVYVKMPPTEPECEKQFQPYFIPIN

[2] = target: FcγRII (CD32) expressed on Raji cells; test: cell-based or functional assay

activity titration curve, CTLA4 blockade assay, against 26 HuIgG1 [1]: > 2 fold of 26 HuIgG1
B1: 26 F(ab')2 (synthetic) (other)
VH: QVQLKESGPGLVAPSQSLSITCTVSGFSLTSYGVYWVRQPPGKGLEWLGVIWAGGTTNYNSALMSRLSISKDNSKSQVFLKMSSLQTDDTAMYYCARGPPHAMMKRGYAMDYWGQGTSVIVSS
VL: QNVLTQSPAIMPASPGEKVTMTCSATSSITYMSWYQQKSGSSPRLLIYDTSNLASGVPVRFSGSGSGTSYSLTISRMEAEDAATYYCQQWSSYPLTFGAGTKLELK

RLU ratio of the CTLA4 blockade assay with anti-CD32 antibody at 10 µg per ml [2]: ~50%
B2: 26 HuIgG1 (chimeric antibody: VH and VL of mouse antibody 26 on a human IgG1 scaffold) (antibody, V domains shown)
VH: B1 VH
VL: B1 VL
